Earlier results, collected in paper PMC5726790.

Key:
[1] = molecular target: C5a receptor (Homo sapiens) (UniProt P21730)
[2] = molecular target: CCR7 (Mus musculus) (UniProt P47774)
Sequence of UniProt P47774 (P47774 25-378): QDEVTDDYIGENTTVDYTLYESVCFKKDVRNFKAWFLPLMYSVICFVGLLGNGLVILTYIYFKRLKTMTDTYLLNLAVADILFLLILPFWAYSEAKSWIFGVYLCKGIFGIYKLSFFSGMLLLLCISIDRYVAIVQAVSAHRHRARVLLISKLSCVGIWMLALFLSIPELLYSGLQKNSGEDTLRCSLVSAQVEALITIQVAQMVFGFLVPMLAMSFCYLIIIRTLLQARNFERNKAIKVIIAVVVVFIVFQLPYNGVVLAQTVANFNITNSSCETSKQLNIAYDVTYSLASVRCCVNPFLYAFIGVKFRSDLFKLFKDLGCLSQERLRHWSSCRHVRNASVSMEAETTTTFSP

Sequence of UniProt P21730 (P21730 whole entry): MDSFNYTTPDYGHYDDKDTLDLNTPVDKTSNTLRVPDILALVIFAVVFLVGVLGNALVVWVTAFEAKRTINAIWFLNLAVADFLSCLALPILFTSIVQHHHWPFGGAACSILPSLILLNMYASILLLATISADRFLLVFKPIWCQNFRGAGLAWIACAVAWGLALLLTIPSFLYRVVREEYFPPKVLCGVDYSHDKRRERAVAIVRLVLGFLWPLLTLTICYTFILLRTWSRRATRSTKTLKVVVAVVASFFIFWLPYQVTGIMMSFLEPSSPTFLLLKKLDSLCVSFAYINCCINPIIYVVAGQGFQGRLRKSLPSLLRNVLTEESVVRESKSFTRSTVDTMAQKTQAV

Kd [1]	Kd [2]	Substance
1 nM	–	C5a C5a (from UniProt P01031)
–	1.5 nM	CCL19 (from UniProt O70460)
